# Target: CD31 (PECAM-1) (Homo sapiens) (UniProt P16284)
# Details: 5-(N-naphthylcarboxyamide)-2'-deoxyuridine (NapdU) replaces dT; SOMAmer; Flow cytometry: 1x PBS (pH 7.4), 2% FBS, 5 mM MgCl2, 0.2 mM dextran sulfate, room temperature, 15 min; aptamers heated at 95 C 5 min and cooled; Kd assay …
# UniProt P16284, sequence (P16284 28-601): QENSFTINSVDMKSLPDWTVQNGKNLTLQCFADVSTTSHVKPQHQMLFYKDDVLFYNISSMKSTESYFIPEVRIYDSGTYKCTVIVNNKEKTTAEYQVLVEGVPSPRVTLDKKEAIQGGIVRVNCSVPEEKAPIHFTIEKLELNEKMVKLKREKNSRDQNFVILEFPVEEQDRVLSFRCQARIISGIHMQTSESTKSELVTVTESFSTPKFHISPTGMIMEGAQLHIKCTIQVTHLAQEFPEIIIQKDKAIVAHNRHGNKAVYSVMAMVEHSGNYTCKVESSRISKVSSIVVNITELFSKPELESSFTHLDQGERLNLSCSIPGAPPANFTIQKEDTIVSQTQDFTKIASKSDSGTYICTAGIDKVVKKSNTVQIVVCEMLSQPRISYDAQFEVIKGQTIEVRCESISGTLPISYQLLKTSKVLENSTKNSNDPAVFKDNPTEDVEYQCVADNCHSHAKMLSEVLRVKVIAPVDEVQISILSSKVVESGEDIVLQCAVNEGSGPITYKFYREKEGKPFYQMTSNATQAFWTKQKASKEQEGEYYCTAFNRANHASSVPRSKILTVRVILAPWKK
sequence,measurement,value
TCAGCCGCCAGCCAGTTCGUAGAGGAGGUACGUAAUGUCUGGGUAUACCCCGAUAAUUGACCAGAGCACCACAGAG [AT-1 (CD31 aptamer clone 1)],Kd,2.28 nM

# Source: paper PMC4493074
